Assay results: patent publication US20060228349A1 (published 2006)

Columns and labels:
[1] = target: T1, biotin-Aβ1-20 (biotin (position not given)); assay: BIACORE, biotin-Aβ1-20 as antigen; column Fab
T1 peptide: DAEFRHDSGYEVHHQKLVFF

[2] = target: T2, Biotinylated ADDL preparations (bADDLs) (N-terminal biotin); assay: BIACORE, bADDL as antigen; column Fab (row shifted one column to the left)
T2 construct: Oligomer, number of copies not fixed; also called biotinylated ADDL antigen; high molecular weight 10% bADDL

[3] = target: T3, ADDL fibril preparation (Aβ1-42 fibrils); assay: solution equilibrium titration, free IgG by ELISA, GraFit; SE 0.47
T3 construct: Fibrillar assembly; number of copies not fixed

[4] = target: T4, Aβ1-20 peptide; assay: solution equilibrium titration, free IgG by ELISA, GraFit; SE 24.41
T4 peptide: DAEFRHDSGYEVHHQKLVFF

[5] = target: T2, Biotinylated ADDL preparations (bADDLs); assay: BIACORE, bADDL as antigen; column IgG1#1 (row shifted one column to the left)
[6] = target: T1, biotin-Aβ1-20; assay: BIACORE, biotin-Aβ1-20 as antigen; column IgG1#1
[7] = target: T5, Aβ-derived diffusible ligands (synthetic ADDLs), soluble oligomers of amyloid β1-42; assay: solution equilibrium titration, free IgG by ELISA, GraFit; SE 0.09
T5 construct: Oligomeric preparation of synthetic Aβ1-42 in DMSO/F12 (monomer, trimer, tetramer, 12-24mer on SDS-PAGE); number of copies not fixed; also called soluble Aβ oligomers

[8] = target: T6, Aβ1-12 peptide; assay: competition dot blot with peptides
T6 peptide: DAEFRHDSGYEV

[9] = target: T7, Aβ12-28 peptide; assay: competition dot blot with peptides
T7 peptide: VHHQKLVFFAEDVGSNK

[10] = target: T8, amyloid beta (1-40) peptide; assay: solution equilibrium titration, free IgG by ELISA, GraFit; SE 5.05
T8 construct: Used as monomer-like control; also called Aβ1-40; monomer preparation

[11] = target: T8, amyloid beta (1-40) peptide; assay: solution equilibrium titration, free IgG by ELISA, GraFit; SE 2.64
[12] = target: T5, Aβ-derived diffusible ligands …; assay: solution equilibrium titration, free IgG by ELISA, GraFit; SE 0.25
[13] = target: T3, ADDL fibril preparation (Aβ1-42 fibrils); assay: solution equilibrium titration, free IgG by ELISA, GraFit; SE 0.99
[14] = target: T9, SEC Peak 2 fraction of ADDLs (small aggregates, <30 kDa); assay: sandwich ELISA on SEC peaks (FIG. 3)
T9 construct: Mostly monomer with small amounts of trimer and tetramer, no 12-24mer

[15] = target: T10, SEC Peak 1 fraction of ADDLs (large aggregates, >50 kDa); assay: sandwich ELISA on SEC peaks (FIG. 3)
T10 construct: Monomer, trimer, tetramer and 12-24mer on SDS-PAGE

[16] = target: T3, ADDL fibril preparation (Aβ1-42 fibrils); assay: solution equilibrium titration, free IgG by ELISA, GraFit; SE 5.78
[17] = target: T8, amyloid beta (1-40) peptide; assay: solution equilibrium titration, free IgG by ELISA, GraFit; SE 6.21
[18] = target: T4, Aβ1-20 peptide; assay: solution equilibrium titration, free IgG by ELISA, GraFit; SE 4.39
[19] = target: T5, Aβ-derived diffusible ligands …; assay: solution equilibrium titration, free IgG by ELISA, GraFit; SE 1.63
[20] = target: T4, Aβ1-20 peptide; assay: peptide ELISA
[21] = target: T5, Aβ-derived diffusible ligands …; assay: solution equilibrium titration, free IgG by ELISA, GraFit; SE 0.74
[22] = target: T8, amyloid beta (1-40) peptide; assay: solution equilibrium titration, free IgG by ELISA, GraFit; SE 21.86
[23] = target: T3, ADDL fibril preparation (Aβ1-42 fibrils); assay: solution equilibrium titration, free IgG by ELISA, GraFit; SE 0.59
[24] = target: T3, ADDL fibril preparation (Aβ1-42 fibrils); assay: solution equilibrium titration, free IgG by ELISA, GraFit; SE 1.60
[25] = target: T5, Aβ-derived diffusible ligands …; assay: solution equilibrium titration, free IgG by ELISA, GraFit; SE 0.42
[26] = target: T8, amyloid beta (1-40) peptide; assay: solution equilibrium titration, free IgG by ELISA, GraFit; SE 2.07
[27] = target: T8, amyloid beta (1-40) peptide; assay: solution equilibrium titration, free IgG by ELISA, GraFit; SE 4.14
[28] = target: T5, Aβ-derived diffusible ligands …; assay: solution equilibrium titration, free IgG by ELISA, GraFit; SE 1.03
[29] = target: T3, ADDL fibril preparation (Aβ1-42 fibrils); assay: solution equilibrium titration, free IgG by ELISA, GraFit; SE 3.69
[30] = target: T3, ADDL fibril preparation (Aβ1-42 fibrils); assay: solution equilibrium titration, free IgG by ELISA, GraFit; SE 2.40
[31] = target: T5, Aβ-derived diffusible ligands …; assay: solution equilibrium titration, free IgG by ELISA, GraFit; SE 0.52
[32] = target: T4, Aβ1-20 peptide; assay: solution equilibrium titration, free IgG by ELISA, GraFit; SE 7.07
[33] = target: T8, amyloid beta (1-40) peptide; assay: solution equilibrium titration, free IgG by ELISA, GraFit; SE 5.84

B1: Fab of mouse 20C2 (Fab, V domains shown)
VH: QVTLKESGPGILKPSQTLSLTCSLSGFSLSTSGMGVGWFRQPSGKGLEWLAHIWWDDDKSYNPSLKSRLTISKYTSRNQVFLTITSVDTADTATYYCARRQLGLRSIDAMDYWGQGTSVTVSS
VL: DVLMTQTPLSLPVSLGDQASISCRSSQSILHSNGNTYLEWYLQKPGQSPKLLIYKVSNRFSGVPDRFSGSGSGTDFTLKISRVEAEDLGVYYCFQGSLVPLTFGAGTKLELK
notes: also called Mouse-20C2 (Fab column)
Kd [1]: 83 nM | Kd [2]: 62 nM

B2: murine anti-ADDL monoclonal antibody 20C2 (antibody, mouse IgG1, V domains shown)
VH: QVTLKESGPGILKPSQTLSLTCSLSGFSLSTSGMGVGWFRQPSGKGLEWLAHIWWDDDKSYNPSLKSRLTISKYTSRNQVFLTITSVDTADTATYYCARRQLGLRSIDAMDYWGQGTSVTVSS
VL: DVLMTQTPLSLPVSLGDQASISCRSSQSILHSNGNTYLEWYLQKPGQSPKLLIYKVSNRFSGVPDRFSGSGSGTDFTLKISRVEAEDLGVYYCFQGSLVPLTFGAGTKLELK
notes: also called Mouse-20C2
Kd [3]: 3.62 nM | Kd [4]: 71.3 nM | Kd [5]: 4.1 nM | Kd [6]: 3.4 nM | Kd [7]: 0.92 nM | binding result [8]: no binding (tested: 200 pmol peptide in 200 µL) | binding result [9]: no binding (tested: 200 pmol peptide in 200 µL) | Kd [10]: 30.5 nM

B3: murine anti-ADDL monoclonal antibody 2A10 (antibody, mouse IgG1, V domains shown)
VH: QVTLKESGPGILKPSQTLSLTCSFSGFSLSTSGMGVGWIRQPSGKGLEWLAHIWWDDDKYYNPSLKSQLTISKDTSRNQVFLKITSVDTADTATYYCARRSISTLVPEDYFDYWGQGTTLTVSS
VL: DVLMTQTPLSLPVSLGDQASISCRSSQSIVHSNGNTYLEWYLQKPGQSPKLLIYKVSNRFSGVPDRFSGSGSGTDFTLKISRVEAEDLGVYYCFQGSHVPLTFGAGTKLELK
Kd [11]: 14.7 nM | Kd [12]: 2.29 nM | Kd [13]: 6.72 nM | binding result [14]: binds | binding result [15]: binds

B4: murine anti-ADDL monoclonal antibody 5F10 (antibody, V domains shown)
VH: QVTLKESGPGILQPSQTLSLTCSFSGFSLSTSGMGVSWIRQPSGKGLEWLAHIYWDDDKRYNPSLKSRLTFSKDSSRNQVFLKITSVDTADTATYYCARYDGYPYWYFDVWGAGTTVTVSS
VL: VVLMTQTPLSLPVSLGDQASISCRSSQSLVHSNGNTYLHWYLQKPGQSPKLLIYKVSNRFSGVPDRFSGSGSGTDFTLKISRVEAEDLGVYFCFQSTHVPLTFGAGTKLELK
notes: also called SF10
Kd [16]: 28.9 nM | Kd [17]: 23.5 nM | Kd [18]: 6.1 nM | Kd [19]: 11.9 nM

B5: murine anti-ADDL monoclonal antibody 3B3 (antibody, mouse IgG1, V domains shown)
VH: DVQLVESGGGLVQPGGSRKLSCAASGFTFSSFGMHWVRQAPEKGLEWVAYISRGSSTIYYADTVKGRFTISRDNPKNTLFLQMTSLRSEDTAMYYCARGITTALDYWGQGTSVTVSS
VL: DVLMTQTPLSLPVSLGDQASISCRSSQSIVHSNGNTYLEWYLQKPGQSPKLLIYKASNRFSGVPDRFSGSGSGTDFTLKISRVEAEDLGVYYCFQGSHVPPTFGGGTKLEIK
binding result [20]: binds | Kd [21]: 10 nM | Kd [22]: 105 nM | Kd [23]: 7.21 nM

B6: murine anti-ADDL monoclonal antibody 4E2 (antibody, mouse IgG1, V domains shown)
VH: QVTLKESGPGILKPSQTLSLTCSFSGFSLSTSGMGVGWIRQPSGKGLEWLAHIWWDDDKYYNPSLKSQLTISKDTSRNQVFLKITSVDTADTATYYCARRSINSVVPEDYFDYWGQGTTLTVSL
VL: DVLMTQTPLSLPVSLGDQASISCRSSQSIVHSNGNTYLEWYLQKPGQSPKLLIYKVSNRFSGVPDRFSGSGSGTDFTLKISRVEAEDLGVYYCFQGSHVPLTFGAGTKLELK
Kd [24]: 9.4 nM | Kd [25]: 4.26 nM | binding result [14]: binds | binding result [15]: binds | Kd [26]: 20.2 nM

B7: murine anti-ADDL monoclonal antibody 4C2 (antibody, mouse IgG1, V domains shown)
VH: QVTLKESGPGILKPSQTLSLTCSFSGFSLSTSGMGVGWIRQPSGKGLEWLAHIWWDDDKYYNPSLKSQLTISKDTSRNQVFLKITSVDTADTATYYCARRSITTVVPEDYFAYWGQGTTLTVSS
VL: DVLMTQSPLSLPVSLGDQASISCRSSQSIVHSNGNTYLEWYLQKPGQSPKLLIYKVSNRFSGVPDRFSGSGSGTDFTLKISRVEAEDLGVYYCFQGSHVPLTFGAGTKLELK
Kd [27]: 21.9 nM | Kd [28]: 8.08 nM | binding result [14]: binds | binding result [15]: binds | Kd [29]: 19.2 nM

B8: murine anti-ADDL monoclonal antibody 2D6 (antibody, mouse IgG1, V domains shown)
VH: QVTLKESGPGILKPSQTLSLTCSFSGFSLSTSGMGVGWIRQPSGKGLEWLAHIWWDDDKYYNPSLKSQLTISKDTSRNQVFLKITSVDTADTATYYCARRSISTVIPEDYFDYWGQGTILTVSS
VL: DVLMTQTPLSLTVSLGDQASISCRSSQSIVHSNGNTYLEWYLQKPGQSPKLLIYKVSNRFSGVPDRFSGSGSGTDFTLKISRVEAEDLGVYYCFQGSHVPLTFGAGTKLELK
Kd [30]: 14.4 nM | Kd [31]: 5.05 nM | Kd [32]: 30.2 nM | Kd [33]: 25.7 nM
